{
  "source": "paper PMC8038991",
  "about": "(2021)",
  "key": {"[1]": {"target": "purified wild type ZZ fragment p62 (122-175) of the ITC table (Fig. 3b) (human, UniProt Q13501 122-175)", "assay": "ITC"}, "[2]": {"target": "N132Q ZZ fragment p62 (122-175) (Homo sapiens)", "sequence (chain, as listed by the source N132Q)": "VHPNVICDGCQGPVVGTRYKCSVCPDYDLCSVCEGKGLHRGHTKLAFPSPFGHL", "assay": "ITC"}},
  "note": "Ends that are not written are not given here.",
  "data": [
    {"binder": "HIFS", "values": [
      {"measurement": "Kd", "setting": "[1]", "result": 300, "unit": "µM"}
    ]},
    {"binder": "RIFS (also: two Zn2+ ions bound)", "note": "[RIFS tetrapeptide (Nt-Arg)]", "values": [
      {"measurement": "Kd", "setting": "[2]", "result": 21.4, "unit": "µM"}
    ]},
    {"binder": "WIFS", "values": [
      {"measurement": "Kd", "setting": "[1]", "result": 374, "unit": "µM"}
    ]},
    {"binder": "KIFS", "values": [
      {"measurement": "Kd", "setting": "[1]", "result": 51.8, "unit": "µM"}
    ]},
    {"binder": "YIFS (also: two Zn2+ ions bound)", "note": "[YIFS tetrapeptide (Nt-Tyr)]", "values": [
      {"measurement": "Kd", "setting": "[2]", "result": 143, "unit": "µM"}
    ]}
  ]
}
